The test concerns the target T1, SWELL1 (LRRC8a, Leucine-Rich Repeat Containing Protein 8a), Q80WG5.
T1 chain: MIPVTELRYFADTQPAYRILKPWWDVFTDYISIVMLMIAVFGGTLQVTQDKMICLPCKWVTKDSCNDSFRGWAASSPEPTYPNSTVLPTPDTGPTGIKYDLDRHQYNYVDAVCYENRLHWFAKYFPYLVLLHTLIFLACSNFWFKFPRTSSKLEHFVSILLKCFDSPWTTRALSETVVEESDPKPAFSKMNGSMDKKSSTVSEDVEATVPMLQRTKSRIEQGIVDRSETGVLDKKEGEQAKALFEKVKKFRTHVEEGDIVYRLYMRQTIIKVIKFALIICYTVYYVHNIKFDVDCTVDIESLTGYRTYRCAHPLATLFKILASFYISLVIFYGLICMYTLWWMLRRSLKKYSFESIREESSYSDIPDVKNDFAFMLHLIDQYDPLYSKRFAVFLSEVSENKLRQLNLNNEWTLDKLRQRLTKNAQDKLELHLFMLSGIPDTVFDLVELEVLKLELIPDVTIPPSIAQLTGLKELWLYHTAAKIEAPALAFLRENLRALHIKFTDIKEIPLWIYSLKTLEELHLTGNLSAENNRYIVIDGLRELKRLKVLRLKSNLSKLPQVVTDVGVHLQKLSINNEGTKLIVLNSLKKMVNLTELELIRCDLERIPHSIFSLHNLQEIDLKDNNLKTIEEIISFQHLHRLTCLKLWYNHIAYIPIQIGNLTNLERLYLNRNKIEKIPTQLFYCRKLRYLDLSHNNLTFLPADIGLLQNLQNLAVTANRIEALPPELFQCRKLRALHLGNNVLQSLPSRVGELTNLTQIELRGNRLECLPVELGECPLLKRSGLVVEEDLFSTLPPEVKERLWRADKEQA
The experiment in a line: cryo-EM structure. The note with it: remark: other sources report otherwise.

As a reminder, the stoichiometry N is the number of molecules, sites or subunits per partner or assembly.

B1: SWELL1 (LRRC8a, Leucine-Rich Repeat Containing Protein 8a), Q80WG5 1-810 (natural protein)
chain: T1 chain
The molecule B1 gave a stoichiometry N of 6.

(Values after doi:10.1101/2021.02.28.432901.)
